In paper PMC10779143, “Collagen-like Osteoclast-Associated Receptor (OSCAR)-Binding Motifs Show a Co-Stimulatory Effect on Osteoclastogenesis in a Peptide Hydrogel System” (International Journal of Molecular Sciences, 2023):
[ ]: non-standard residue; d: D form. Hyp = O=C(O)[C@@H]1C[C@@H](O)CN1

Biological target: T1, Recombinant human OSCAR-Fc chimera (human)
T1 construct: extracellular region of human osteoclast-associated receptor (OSCAR), Asp19-Asn229 of NP_573399; In the functional rows the OSCAR of the test system is the endogenous mouse receptor of Raw 264.7 cells, not this construct; also called osteoclast-associated receptor; source: bought: R&D Systems, Bio-Techne, 9955-OS
Assay: SPR; Biacore T200, CM5 chip; OSCAR-Fc immobilised by amine coupling to 6880 RU; peptides flowed as analytes at 30 µL/min, 25 °C, 10 mM PBS, 150 mM NaCl, 0.05% Tween20, pH 7.4; OP1_Hyp 5000-0 nM (Langmuir 1:1 kinetic fit), OP1_Pro 40,000-0 nM (steady-state analysis)
Conditions: both partners purified

Kd | Binder
2.63 µM | Ac-GP[Hyp]GP[Hyp]GP[Hyp]GA[Hyp]GPAGFAGP[Hyp]GP[Hyp]GP[Hyp]-NH2 (SMILES CC(=O)NCC(=O)N1CCC[C@H]1C(=O)N1C[C@H](O)C[C@H]1C(=O)NCC(=O)N1CCC[C@H]1C(=O)N1C[C@H](O)C[C@H]1C(=O)NCC(=O)N1CCC[C@H]1C(=O)N1C[C@H](O)C[C@H]1C(=O)NCC(=O)N[C@@H](C)C(=O)N1C[C@H](O)C[C@H]1C(=O)NCC(=O)N1CCC[C@H]1C(=O)N[C@@H](C)C(=O)NCC(=O)N[C@@H](Cc1ccccc1)C(=O)N[C@@H](C)C(=O)NCC(=O)N1CCC[C@H]1C(=O)N1C[C@H](O)C[C@H]1C(=O)NCC(=O)N1CCC[C@H]1C(=O)N1C[C@H](O)C[C@H]1C(=O)NCC(=O)N1CCC[C@H]1C(=O)N1C[C@H](O)C[C@H]1C(N)=O) [OP1_Hyp]
19.5 µM | Ac-GP[Hyp]GP[Hyp]GP[Hyp]GAPGPAGFAGP[Hyp]GP[Hyp]GP[Hyp]-NH2 (SMILES CC(=O)NCC(=O)N1CCC[C@H]1C(=O)N1C[C@H](O)C[C@H]1C(=O)NCC(=O)N1CCC[C@H]1C(=O)N1C[C@H](O)C[C@H]1C(=O)NCC(=O)N1CCC[C@H]1C(=O)N1C[C@H](O)C[C@H]1C(=O)NCC(=O)N[C@@H](C)C(=O)N1CCC[C@H]1C(=O)NCC(=O)N1CCC[C@H]1C(=O)N[C@@H](C)C(=O)NCC(=O)N[C@@H](Cc1ccccc1)C(=O)N[C@@H](C)C(=O)NCC(=O)N1CCC[C@H]1C(=O)N1C[C@H](O)C[C@H]1C(=O)NCC(=O)N1CCC[C@H]1C(=O)N1C[C@H](O)C[C@H]1C(=O)NCC(=O)N1CCC[C@H]1C(=O)N1C[C@H](O)C[C@H]1C(N)=O) [OP1_Pro]
